Experimental data as given in article PMC5128726, “Mechanism and Regulation of DNA-Protein Crosslink Repair by the DNA-Dependent Metalloprotease SPRTN”.
Positions count from the first letter of the chain named.

T1: SPRTN 247-489 (Homo sapiens, UniProt Q9H040 247-489)
T1 sequence: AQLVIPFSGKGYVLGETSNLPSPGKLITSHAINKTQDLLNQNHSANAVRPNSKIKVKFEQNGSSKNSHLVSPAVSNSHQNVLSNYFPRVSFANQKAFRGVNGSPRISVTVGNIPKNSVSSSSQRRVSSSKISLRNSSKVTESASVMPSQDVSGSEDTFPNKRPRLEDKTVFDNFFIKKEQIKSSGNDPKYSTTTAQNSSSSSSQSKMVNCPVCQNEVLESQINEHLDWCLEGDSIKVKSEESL

T2: SPRTN WT (Homo sapiens, UniProt Q9H040 1-489)
T2 sequence: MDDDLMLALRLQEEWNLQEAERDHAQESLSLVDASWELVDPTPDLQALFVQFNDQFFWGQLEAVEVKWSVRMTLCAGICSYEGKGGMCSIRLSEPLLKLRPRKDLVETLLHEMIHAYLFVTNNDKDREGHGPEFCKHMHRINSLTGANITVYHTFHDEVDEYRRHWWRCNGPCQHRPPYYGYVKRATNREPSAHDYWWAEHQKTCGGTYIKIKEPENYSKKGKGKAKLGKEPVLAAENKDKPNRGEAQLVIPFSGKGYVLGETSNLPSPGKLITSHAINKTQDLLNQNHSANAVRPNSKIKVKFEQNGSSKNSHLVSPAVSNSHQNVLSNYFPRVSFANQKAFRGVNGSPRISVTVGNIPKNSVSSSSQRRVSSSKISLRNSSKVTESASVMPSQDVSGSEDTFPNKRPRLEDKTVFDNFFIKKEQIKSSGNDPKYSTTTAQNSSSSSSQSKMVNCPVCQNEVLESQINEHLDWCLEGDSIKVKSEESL

T3: SPRTN 200-250 (Homo sapiens, UniProt Q9H040 200-250)
T3 sequence: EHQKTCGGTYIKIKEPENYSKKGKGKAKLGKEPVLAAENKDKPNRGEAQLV

T4: SPRTN 1-199 (Homo sapiens, UniProt Q9H040 1-199)
T4 sequence: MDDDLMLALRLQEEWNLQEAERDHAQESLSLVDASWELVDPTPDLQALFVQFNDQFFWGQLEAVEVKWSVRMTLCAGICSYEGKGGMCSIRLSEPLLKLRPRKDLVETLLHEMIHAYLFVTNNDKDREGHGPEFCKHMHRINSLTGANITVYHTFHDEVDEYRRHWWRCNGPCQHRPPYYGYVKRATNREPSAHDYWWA

T5: SPRTN-EQ (Homo sapiens, UniProt Q9H040 1-489, E112Q)
T5 sequence: T2 sequence with E112Q


Key:
[1] = molecular target: T1, SPRTN 247-489; test: EMSA; 250 nM DNA, 0.5-1 uM protein; Oligo EMSA: protein in 250 mM NaCl, 50 mM HEPES pH 7.5, 10% glycerol mixed 1:1 with DNA in 0.2 mg/ml BSA, 15 uM (so in the source) HEPES pH 7.5; 20 min on ice; 6% PAGE. Phage DNA: 0.8% agarose, 4 C; conditions: protein: recombinant; label: 5' Alexa488
[2] = molecular target: T2, SPRTN WT; test: as above; conditions: protein: recombinant; tags: N-terminal GST, C-terminal Strep; label: 5' Alexa488
[3] = molecular target: T3, SPRTN 200-250; test: EMSA; 250 nM DNA, 0.25-1 uM protein; Oligo EMSA: protein in 250 mM NaCl, 50 mM HEPES pH 7.5, 10% glycerol mixed 1:1 with DNA in 0.2 mg/ml BSA, 15 uM (so in the source) HEPES pH 7.5; 20 min on ice; 6% PAGE. Phage DNA: 0.8% agarose, 4 C; conditions: protein: recombinant; tags: GST; label: 5' Alexa488
[4] = molecular target: T4, SPRTN 1-199; test: as above; conditions: protein: recombinant; tags: N-terminal GST, C-terminal Strep; label: 5' Alexa488
[5] = molecular target: T5, SPRTN-EQ; test: SAXS; 1:1.2 protein:DNA; Rg +8-10 A, Dmax +30 A; 50 mM HEPES pH 7.5, 75 mM KCl, 1% glycerol; Oligo EMSA: protein in 250 mM NaCl, 50 mM HEPES pH 7.5, 10% glycerol mixed 1:1 with DNA in 0.2 mg/ml BSA, 15 uM (so in the source) HEPES pH 7.5; 20 min on ice; 6% PAGE. Phage DNA: 0.8% agarose, 4 C; conditions: protein: recombinant; tags: N-terminal GST, C-terminal Strep

Binder	binding result [1]	binding result [2]	binding result [3]	binding result [4]	binding result [5]
ACGCTGCCGAATTCTACCAGTGCCTTGCTA (ssDNA) [Alexa488 30-mer ss oligonucleotide]	no binding	binds	binds	no binding	
ACGCTGCCGAATTCT (ssDNA) [15-mer ssDNA]					binds
